In article PMC5413884, “Enzyme discovery beyond homology: a unique hydroxynitrile lyase in the Bet v1 superfamily” (Scientific Reports, 2017):
One block for each molecule: values may come before it.

Key:
[1] = target: T1, DtHNL1 (Davallia tyermanii, UniProt A0A1C9V3S9); test: benzaldehyde formation at […] nm, Michaelis-Menten fit; type: biochemical; settings: cleavage direction; 50 mM sodium citrate-phosphate pH 5.0, 25 °C
T1 construct: gene HNL1; dimer; about 20 kDa

[2] = target: T1, DtHNL1; test: X-ray crystal structure, soaking; type: binding; settings: active site
[3] = target: Davallia tyermannii hydroxynitrile lyase 1 (DtHNL1) (Davallia tyermannii); test: crystal structure; SeMet-SAD structure at 1.85 Å and native crystals soaked with 4-hydroxybenzaldehyde, benzoic acid or (R)-mandelonitrile; sitting drop vapor diffusion, 16 °C, protein in 10 mM Tris-HCl pH 8.0
[4] = tested on: O=Cc1ccccc1; test: GC of (R)-mandelonitrile formed, initial rates, Michaelis-Menten fit; type: biochemical, Davallia tyermanii; settings: apparent, synthesis direction, biphasic MTBE/buffer 2:1, 2 M HCN, pH 4.0, 10 °C
[5] = tested on: N#C[C@H](O)c1ccccc1; test: purified protein; type: biochemical, Davallia tyermanii; settings: cleavage direction, 50 mM sodium citrate-phosphate pH 5.0, 25 °C
[6] = crystal soaked with (R)-mandelonitrile

Molecule: N#C[C@H](O)c1ccccc1 [(R)-mandelonitrile, (2R)-2-hydroxy-2-phenylacetonitrile]
Km [1]: 300 ± 30 µM | X-ray crystal structure, soaking [2, 6]: 5E4B (DtHNL1-MXN)

Molecule: O=Cc1ccccc1 [benzaldehyde]
X-ray crystal structure, soaking [2, 6]: Bound benzaldehyde (cyan, right) and (R)-mandelonitrile (yellow, left) as observed in a crystal

Molecule: O=C(O)c1ccccc1 [benzoic acid]
X-ray crystal structure, soaking [2]: 5E4D (DtHNL1–BEZ)

stoichiometry N [3]: 2
Molecule: Davallia tyermannii hydroxynitrile lyase 1 (DtHNL1) (enzyme)

Molecule: DtHNL1 (Davallia tyermanii)
Km [4]: 14000 ± 2000 µM | kcat [4]: 70 ± 7 s⁻¹

Molecule: DtHNL2 (Davallia tyermanii)
Km [5]: 450 ± 50 µM | kcat [5]: 156 ± 3 s⁻¹

Molecule: DtHNL3 (Davallia tyermanii)
Km [5]: 750 ± 80 µM | kcat [5]: 356 ± 8 s⁻¹

Molecule: DtHNL4 (Davallia tyermanii)
Km [5]: 630 ± 60 µM | kcat [5]: 272 ± 5 s⁻¹
